The FLAb antibody collection (doi:10.7554/elife.23156)

B1: scFv; the commonest letter at each place (parent)
chain 1: EVKLDETGGGLVQPGRPMKLSCVASGFTFSDYWMNWVRQSPEKGLEWVAQIRNKPYNYETYYSDSVKGRFTISRDDSKSSVYLQMNNLRVEDMGIYYCTGSYYGMDYWGQGTSVTVS
chain 2: DVVMTQTPLSLPVSLGDQASISCRSSQSLVHSNGNTYLRWYLQKPGQSPKVLIYKVSNRFSGVPDRFSGSGSGTDFTLKISRVEAEDLGVYFCSQSTHVPWTFGGGTKLEIK

Tests used:
fluorescein = variants of: B1; assay: Kd (Tite-Seq); settings: with fluorescein; format: scFv 4-4-20, heavy + light
[1] = variants of: B1; assay: yeast surface expression (ratio to wild type); higher = more expressed; settings: format: scFv 4-4-20, heavy + light

Row | Kd (fluorescein) [µM] | Variant | yeast surface expression [1]
1 | ≥ 10 | chain 1 EVKLDETGGGLVQPGRPMKLSCVASGFTFSDYWMNWVRQSPEKGLEWVAQIRNKPYNYETYYSDSVKGRFTISRDDSKSSVYLQMNNLRVEDMGIYYCTGSYYFMDQWGQGTSVTVS chain 2 DVVMTQTPLSLPVSLGDQASISCRSSQSLVHSNGNTYLRWYLQKPGQSPKVLIYKVSNRFSGVPDRFSGSGSGTDFTLKISRVEAEDLGVYFCSQSTHVPWTFGGGTKLEIK [chain 1 G104F Y107Q] | 0.401
2 | ≥ 10 | chain 1 EVKLDETGGGLVQPGRPMKLSCVASGFTFSDYWMNWVRQSPEKGLEWVAQIRNKPYNYETYYSDSVKGRFTISRDDSKSSVYLQMNNLRVEDMGIYYCTGSYYEMDYSGQGTSVTVS chain 2 DVVMTQTPLSLPVSLGDQASISCRSSQSLVHSNGNTYLRWYLQKPGQSPKVLIYKVSNRFSGVPDRFSGSGSGTDFTLKISRVEAEDLGVYFCSQSTHVPWTFGGGTKLEIK [chain 1 G104E W108S] | 0.331
3 | ≥ 10 | chain 1 EVKLDETGGGLVQPGRPMKLSCVASGFTFSDYWMNWVRQSPEKGLEWVAQIRNKPYNYETYYSDSVKGRFTISRDDSKSSVYLQMNNLRVEDMGIYYCTGSYYFMGYWGQGTSVTVS chain 2 DVVMTQTPLSLPVSLGDQASISCRSSQSLVHSNGNTYLRWYLQKPGQSPKVLIYKVSNRFSGVPDRFSGSGSGTDFTLKISRVEAEDLGVYFCSQSTHVPWTFGGGTKLEIK [chain 1 G104F D106G] | 0.169
4 | ≥ 10 | chain 1 EVKLDETGGGLVQPGRPMKLSCVASGFTFSDYWMNWVRQSPEKGLEWVAQIRNKPYNYETYYSDSVKGRFTISRDDSKSSVYLQMNNLRVEDMGIYYCTGSYYFMKYWGQGTSVTVS chain 2 DVVMTQTPLSLPVSLGDQASISCRSSQSLVHSNGNTYLRWYLQKPGQSPKVLIYKVSNRFSGVPDRFSGSGSGTDFTLKISRVEAEDLGVYFCSQSTHVPWTFGGGTKLEIK [chain 1 G104F D106K] | 0.201
5 | 0.02 | chain 1 EVKLDETGGGLVQPGRPMKLSCVASGFTFSDYWMNWVRQSPEKGLEWVAQIRNKPYNYETYYSDSVKGRFTISRDDSKSSVYLQMNNLRVEDMGIYYCTGSYYFMDYRGQGTSVTVS chain 2 DVVMTQTPLSLPVSLGDQASISCRSSQSLVHSNGNTYLRWYLQKPGQSPKVLIYKVSNRFSGVPDRFSGSGSGTDFTLKISRVEAEDLGVYFCSQSTHVPWTFGGGTKLEIK [chain 1 G104F W108R] | 0.146

Further lines, the variant ahead of its results:

Row | Variant | Kd (fluorescein) [µM] | yeast surface expression [1]
6 | chain 1 EVKLDETGGGLVQPGRPMKLSCVASGFTFSDYWMNWVRQSPEKGLEWVAQIRNKPYNYETYYSDSVKGRFTISRDDSKSSVYLQMNNLRVEDMGIYYCTGSYYFMDYWWQGTSVTVS chain 2 DVVMTQTPLSLPVSLGDQASISCRSSQSLVHSNGNTYLRWYLQKPGQSPKVLIYKVSNRFSGVPDRFSGSGSGTDFTLKISRVEAEDLGVYFCSQSTHVPWTFGGGTKLEIK [chain 1 G104F G109W] | ≥ 10 | 0.0981
7 | chain 1 EVKLDETGGGLVQPGRPMKLSCVASGFTFSDYWMNWVRQSPEKGLEWVAQIRNKPYNYETYYSDSVKGRFTISRDDSKSSVYLQMNNLRVEDMGIYYCTGSYYEMDAWGQGTSVTVS chain 2 DVVMTQTPLSLPVSLGDQASISCRSSQSLVHSNGNTYLRWYLQKPGQSPKVLIYKVSNRFSGVPDRFSGSGSGTDFTLKISRVEAEDLGVYFCSQSTHVPWTFGGGTKLEIK [chain 1 G104E Y107A] | ≥ 10 | 0.736
8 | chain 1 EVKLDETGGGLVQPGRPMKLSCVASGFTFSDYWMNWVRQSPEKGLEWVAQIRNKPYNYETYYSDSVKGRFTISRDDSKSSVYLQMNNLRVEDMGIYYCTGSYYFMDYWGQGTSVTVS chain 2 DVVMTQTPLSLPVSLGDQASISCRSSQSLVHSNGNTYLRWYLQKPGQSPKVLIYKVSNRFSGVPDRFSGSGSGTDFTLKISRVEAEDLGVYFCSQSTHVPWTFGGGTKLEIK [chain 1 G104F] | ≥ 10 | 0.597
9 | chain 1 EVKLDETGGGLVQPGRPMKLSCVASGFTFSDYWMNWVRQSPEKGLEWVAQIRNKPYNYETYYSDSVKGRFTISRDDSKSSVYLQMNNLRVEDMGIYYCTGSYYEMDYGGQGTSVTVS chain 2 DVVMTQTPLSLPVSLGDQASISCRSSQSLVHSNGNTYLRWYLQKPGQSPKVLIYKVSNRFSGVPDRFSGSGSGTDFTLKISRVEAEDLGVYFCSQSTHVPWTFGGGTKLEIK [chain 1 G104E W108G] | ≥ 10 | 0.296
10 | chain 1 EVKLDETGGGLVQPGRPMKLSCVASGFTFSDYWMNWVRQSPEKGLEWVAQIRNKPYNYETYYSDSVKGRFTISRDDSKSSVYLQMNNLRVEDMGIYYCTGSYYFMDYFGQGTSVTVS chain 2 DVVMTQTPLSLPVSLGDQASISCRSSQSLVHSNGNTYLRWYLQKPGQSPKVLIYKVSNRFSGVPDRFSGSGSGTDFTLKISRVEAEDLGVYFCSQSTHVPWTFGGGTKLEIK [chain 1 G104F W108F] | ≥ 10 | 0.387
11 | chain 1 EVKLDETGGGLVQPGRPMKLSCVASGFTFSDYWMNWVRQSPEKGLEWVAQIRNKPYNYETYYSDSVKGRFTISRDDSKSSVYLQMNNLRVEDMGIYYCTGSYYFMDYTGQGTSVTVS chain 2 DVVMTQTPLSLPVSLGDQASISCRSSQSLVHSNGNTYLRWYLQKPGQSPKVLIYKVSNRFSGVPDRFSGSGSGTDFTLKISRVEAEDLGVYFCSQSTHVPWTFGGGTKLEIK [chain 1 G104F W108T] | ≥ 10 | 0.194
12 | chain 1 EVKLDETGGGLVQPGRPMKLSCVASGFTFSDYWMNWVRQSPEKGLEWVAQIRNKPYNYETYYSDSVKGRFTISRDDSKSSVYLQMNNLRVEDMGIYYCTGSYYFMDYIGQGTSVTVS chain 2 DVVMTQTPLSLPVSLGDQASISCRSSQSLVHSNGNTYLRWYLQKPGQSPKVLIYKVSNRFSGVPDRFSGSGSGTDFTLKISRVEAEDLGVYFCSQSTHVPWTFGGGTKLEIK [chain 1 G104F W108I] | ≥ 10 | 0.146
